# The supplement of paper PMC10724198
# ± gives the standard deviation of the averaged measurements.
# Test system: Saccharomyces cerevisiae
# Experiment: protein stability index of tFT-peptide fusion (C-terminal peptide) (PSI (0-1 scale)); higher = more stable (slower turnover)
# Details: genetic background: wild type; temperature: 30 C
# Method: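 Multiplexed protein stability (MPS) profiling in S. cerevisiae. Random 12-aa peptides (tFT-X12 library) are fused to the C-terminus of a sfGFP-mCherry tandem fluorescent timer, after mCherry and a GGGS linker. Cells are FACS-sorted into 8 mCherry/sfGFP bins and deep-sequenced. The protein stability index (PSI) is the read-weighted bin average, scaled from 0 (unstable) to 1 (stable). Only peptides with >10 reads are reported; cells were grown at 30 °C in SC-His with glucose.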
# 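Also: PSI is a weighted mean of sequencing reads over stability bins, variants kept only with over 10 reads, mCherry proximal and sfGFP distal, peptide attached via GGGS linker.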
row,Sequence,protein stability index
1,PPAPPPRLPSPP,0.713 ± 0.098
2,GGWARGRQGCGG,0.782 ± 0.011
3,PLISYIEGGPTS,0.674 ± 0.02
4,STVGSKLCWESS,0.682 ± 0.072
5,SPSPPPPPPPPL,0.6877 ± 0.0022
6,PSLPRLPLCPLP,0.704 ± 0.018
7,PPPRHSPRPPCI,0.746 ± 0.11
8,GKVTRGTRRGGK,0.66901 ± 0.0003
9,GEVGAVVGESFV,0.622 ± 0.071
10,RKSRKPNSEPKR,0.717 ± 0.0072
11,SSTCSPPRLSQS,0.679 ± 0.046
12,PSHLWWDCIRKG,0.625 ± 0.049
13,ALFPRLVRPGFV,0.697 ± 0.036
14,PSGLLPILRLFL,0.681 ± 0.047
15,HCFFSVPFRSGF,0.691 ± 0.045
16,GFYEVLRNMFVI,0.589 ± 0.035
17,RVGRKGRRRGSR,0.767 ± 0.07
18,CSTIRDFTIYPP,0.694 ± 0.11
19,TLSPAPSPTPPP,0.678 ± 0.048
20,EGPTRIKRGRSG,0.685 ± 0.031
21,SVGPWVSSGGFR,0.6664 ± 0.0048
22,GGGPAVEGLVGR,0.66 ± 0.045
23,IMTNGADRERYR,0.736 ± 0.034
24,DKVLQSLALKCK,0.508 ± 0.0074
25,LFYFFGKRPAHL,0.781 ± 0.045

row,Sequence,protein stability index
1,KKSKDKRNPKKK,0.692 ± 0.028
2,VRQSQIKHVVVQ,0.627 ± 0.019
3,SKLVEIIMKLQG,0.618 ± 0.055
4,QESSDSRHATIR,0.624 ± 0.044
5,LFDRRDTSTLLL,0.707 ± 0.032
6,PPAAPPPQPHLT,0.696 ± 0.032
7,ASGIYSRFSTSS,0.624 ± 0.052
8,PPPTPPSPPRPH,0.71 ± 0.068
9,QCGYGKLSGGSQ,0.672 ± 0.034
10,PLPSPDLPLTHH,0.679 ± 0.025
11,FGSVGSIRTPDG,0.707 ± 0.0086
12,VVLSCGIPGCVF,0.572 ± 0.028
13,HMGTNSSTGDRN,0.636 ± 0.032
14,SKKKITGGEAGH,0.677 ± 0.046
15,LIRPSAPSHRSP,0.798 ± 0.025
16,PPLPPPLLPSSS,0.711 ± 0.12
17,TQLSSVVVGGRR,0.669 ± 0.015
18,GPGCVFFLACRG,0.559 ± 0.024
19,GTLFKEGSRVTL,0.665 ± 0.027
20,VAVWGGSGDWGR,0.729 ± 0.068
21,FLVREGIGKRGC,0.641 ± 0.072
22,IDPTLPARAAPP,0.737 ± 0.029
23,PPPALVPRPPPR,0.679 ± 0.0084
24,LASYSSCYIRDF,0.751 ± 0.017
25,VWGLGGEFWWGV,0.745 ± 0.014

row,Sequence,protein stability index
1,KKGKEKEVKKKK,0.646 ± 0.074
2,GVRNGFMSVSLY,0.651 ± 0.01
3,GEGALGLRENLQ,0.665 ± 0.021
4,VFPPRPPRAFPP,0.662 ± 0.00098
5,RMNSDMKDTEAQ,0.65 ± 0.0075
6,GGGWDVRGGCVG,0.724 ± 0.0089
7,KSLSEKSKEKGS,0.668 ± 0.034
8,HRLSFPTQNIRG,0.677 ± 0.019
9,GGGGQVWSCRLC,0.678 ± 0.077
10,ERVMMKNDSIVT,0.623 ± 0.1
11,FVALWVGCCWLG,0.542 ± 0.011
12,DFLCHFCVIDEC,0.653 ± 0.066
13,PAPPPPPPPPLH,0.701 ± 0.083
14,ESTKKQSTAPKN,0.714 ± 0.043
15,SLPRLRSCPSSF,0.774 ± 0.18
16,PRTSQVNRFFRV,0.721 ± 0.13
17,HNKTTNGNSHKN,0.715 ± 0.073
18,SDFAPTRPPPAP,0.634 ± 0.051
19,RSSGPPCLIPLP,0.787 ± 0.047
20,PPSPPSPPPPLP,0.69 ± 0.012
21,VGGRLRECVRVG,0.628 ± 0.078
22,WGVGCVRGVWGA,0.714 ± 0.088
23,VTREEVSAGRGR,0.657 ± 0.058
24,WVRLITCVRCSR,0.594 ± 0.048
25,PPPPPLSLPPPA,0.693 ± 0.024

row,Sequence,protein stability index
1,SSLAPLLYLDTP,0.661 ± 0.084
2,IVSKESNVYIIK,0.662 ± 0.053
3,VGLGFVVNAPGL,0.73 ± 0.1
4,CGWLTCSAGFCA,0.726 ± 0.11
5,RESVLRVGCFQP,0.742 ± 0.072
6,TSPSLSALLSFV,0.715 ± 0.073
7,FIIIKTKKMTMK,0.7 ± 0.064
8,VYHQLNDRLSLG,0.70389 ± 0.00025
9,YPNENFALLTEH,0.653 ± 0.046
10,RHRGVYMDRGCL,0.663 ± 0.053
11,SLPASTEPNVGT,0.696 ± 0.034
12,GRLSPRRPRLLV,0.645 ± 0.024
13,KRKREKKLKKYK,0.634 ± 0.037
14,LPSSLFLCSLFC,0.655 ± 0.026
15,VGEGWWQKGMEV,0.676 ± 0.079
16,QSTRPHSHGCLG,0.748 ± 0.051
17,PPPPPLGPLPAL,0.688 ± 0.012
18,PGRVAGGCGVLG,0.64419 ± 0.00049
19,STDRPLRLHPGG,0.622 ± 0.041
20,LISPPAQLAFVP,0.696 ± 0.016
21,PPPSPPSTTPPL,0.672 ± 0.07
22,SPPPPLLPHPTP,0.723 ± 0.047
23,PSAPLVPNLLAA,0.662 ± 0.016
24,YSWGVLSWLSFG,0.648 ± 0.0074
25,AGFGLRGWMIPP,0.68838 ± 0.00018

row,Sequence,protein stability index
1,VLSVGQVGRCVS,0.642 ± 0.043
2,QVNSAHKRTGSG,0.668 ± 0.061
3,FTISALSSTPRP,0.669 ± 0.042
4,RARYGPSYTLPL,0.642 ± 0.027
5,HIHQDPGVIRWG,0.7216 ± 0.0015
6,PVPVLGPESSVH,0.67 ± 0.023
7,PPPRSPRSLPPL,0.676 ± 0.017
8,SPLPPPPPSSSS,0.661 ± 0.016
9,LPFPSPSPPFPF,0.63 ± 0.094
10,RVEADMKKRWTG,0.716 ± 0.028
11,MFVRRTDRGGIV,0.7312 ± 0.0069
12,STRFVRNEFGVS,0.665 ± 0.035
13,RGDIQASKRIHL,0.752 ± 0.046
14,VFLGCCWVHFFY,0.534 ± 0.0062
15,GLFSTRLFCTFL,0.635 ± 0.026
16,AWAVGPTICRRG,0.7219 ± 0.0021
17,SNVHDEVLWTRA,0.704 ± 0.011
18,KIIASVLYGVIG,0.61 ± 0.037
19,SVHAMDCNGYAN,0.643 ± 0.013
20,TDLGYGRLGGWV,0.682 ± 0.083
21,QFTLLEFVRSMG,0.613 ± 0.032
22,HKTNTSRKSRRT,0.737 ± 0.12
23,SDKRMGSLQMSS,0.712 ± 0.033
24,GVDGRWGGEMGR,0.747 ± 0.097
25,LTSATSSGPPHP,0.7232 ± 0.0029

row,Sequence,protein stability index
1,WGRGGSGGSWGA,0.688 ± 0.018
2,EHKVQTTTNQKE,0.697 ± 0.011
3,PACFESCGLWGF,0.75 ± 0.039
4,LATPPPPPLSPP,0.789 ± 0.19
5,VVSHRGVGKGEG,0.607 ± 0.047
6,TVLKCECEYFLH,0.654 ± 0.019
7,STALVFSDSALL,0.694 ± 0.061
8,YLSFDKSLLSQI,0.662 ± 0.029
9,GFPILSGLAVVR,0.6578 ± 0.0055
10,RSGLHGSGRPGG,0.715 ± 0.053
11,SEDGPTPAPSTD,0.71 ± 0.059
12,TKNTEGVKNSLF,0.64 ± 0.096
13,KQKKNEENTKKT,0.735 ± 0.064
14,VIGWSGGCRWSV,0.73 ± 0.027
15,RKKQKKQKKKKG,0.682 ± 0.0092
16,TRSLPTLSPPPS,0.659 ± 0.086
17,QERRDQGRKGQD,0.673 ± 0.011
18,FSPTPSRLSCDR,0.728 ± 0.027
19,LGFVGVRSVRSG,0.667 ± 0.059
20,VGMCVGEVVAIV,0.521 ± 0.015
21,HSQAPPPHPHAP,0.719 ± 0.024
22,TISHPLGPFSVH,0.66 ± 0.042
23,NSHRYDSNIPDS,0.685 ± 0.057
24,YTSFGSSLIPTT,0.652 ± 0.074
25,PHPSPRGTPCPT,0.646 ± 0.021

row,Sequence,protein stability index
1,VGPWQVQRLLWT,0.623 ± 0.056
2,HLFYASCNSSAS,0.67112 ± 0.00053
3,FASTEDDKKNTT,0.6746 ± 0.0029
4,TCLMLSCRSFLW,0.63 ± 0.018
5,LPVRLPVSGSSS,0.8296 ± 0.0057
6,GGGARCGWGGRM,0.7 ± 0.011
7,RLPSPPTAPAPP,0.658 ± 0.0084
8,KSKDKGEGKELK,0.694 ± 0.088
9,PPPAPPPPHSLV,0.717 ± 0.057
10,TKKKPGEPGKRK,0.666 ± 0.013
11,ECTTTWLVPQHL,0.655 ± 0.015
12,PPVPPPAPPHPR,0.753 ± 0.14
13,GYPLRSHCLIVD,0.68 ± 0.0081
14,IFGMSGYVSIIL,0.671 ± 0.014
15,VEQISYATIAFV,0.608 ± 0.061
16,PDSLCLSPPSLP,0.686 ± 0.017
17,GDSVNSRALALS,0.732 ± 0.072
18,SPNSCSVDYFAT,0.61 ± 0.055
19,NPGLGLSCPSPP,0.701 ± 0.043
20,SRPATGSVTFPP,0.694 ± 0.0098
21,GGGLGWVWVKLG,0.735 ± 0.073
22,GGVKGTRFLLRG,0.622 ± 0.051
23,RSWIDNKMKVNV,0.721 ± 0.0076
24,FQGSDCLYFGLL,0.741 ± 0.043
25,GAASHLERGQVP,0.634 ± 0.089

row,Sequence,protein stability index
1,GKRLRFNRRTRA,0.662 ± 0.11
2,SLRTREGSSRRE,0.674 ± 0.23
3,SGGGGGKEAVVR,0.646 ± 0.019
4,SLLPILFPPPPF,0.7147 ± 0.0046
5,FRLPAIRRGHDS,0.69 ± 0.069
6,GPLATACPPALT,0.701 ± 0.046
7,PLTEELCFSAWG,0.734 ± 0.031
8,CKNRLKMKQESK,0.658 ± 0.028
9,LIRFFSSSRPGS,0.671 ± 0.15
10,SPPPPPTSPPPY,0.638 ± 0.0091
11,EWEKKKRGNTRK,0.642 ± 0.022
12,PPLLPTPRPPPP,0.65 ± 0.037
13,VKGYGLILQISV,0.56537 ± 0.00043
14,PPLFPPLAPLHR,0.72 ± 0.032
15,KEEGLKRAKGPQ,0.642 ± 0.02
16,GCGVWRVLRVLR,0.642 ± 0.027
17,HTWARGLGVIRP,0.768 ± 0.012
18,SALEVSPSNGSF,0.598 ± 0.015
19,RCGSWKGVRGVM,0.693 ± 0.032
20,TRFFFLLCRRSL,0.57 ± 0.082
21,SAHPFLPLFSPP,0.718 ± 0.012
